Reference: paper PMC8217511, “Tuning SAS-6 architecture with monobodies impairs distinct steps of centriole assembly” (Nature Communications, 2021)

B1: CrSAS-6_6HR-[F145E] (domain or fragment, Chlamydomonas reinhardtii, UniProt A9CQL4 1-226, looked up)
chain: MPLLLDDGDPKAQTGFDLSTATTLFWRPVPVHVKQQDREDVLEELTFRILTGVAKQNHNLRILRIHISSDSDLFFLHTLEVSEEDFQSLKNDQGILVDFASFPGKIISLLEKCILAQPGDSPRFQAVLTIRGGESVFKIVEINDEKQLPHITLAFRPGNDSVVKQFLAFRLSEVKGTCHDLSDDLSRTRDDRDSMVAQLAQCRQQLAQLREQYDKHLLEVQAQAKT
notes: SAS-6 of Chlamydomonas reinhardtii, residues 1-226 (limits as for CrSAS-6_6HR) with F145E; arranged as homodimers in the crystal; also called CrSAS-6_6HR harboring the mutation F145E; source: E. coli BL21(DE3), purified (HisTrap, tag cleavage by protease, SEC); not shown: His6, N-terminal, cleaved; AVI-tag, N-terminal, cleaved
B2: CrSAS-6_N, N-terminal globular domain of Chlamydomonas reinhardtii SAS-6 (domain or fragment, UniProt A9CQL4 1-159, looked up)
chain: MPLLLDDGDPKAQTGFDLSTATTLFWRPVPVHVKQQDREDVLEELTFRILTGVAKQNHNLRILRIHISSDSDLFFLHTLEVSEEDFQSLKNDQGILVDFASFPGKIISLLEKCILAQPGDSPRFQAVLTIRGGESVFKIVEINDFKQLPHITLAFRPGN
notes: SAS-6 of Chlamydomonas reinhardtii, N-terminal globular head domain, residues 1-159 (the methods list the two ranges in the reverse order of the two names); source: E. coli BL21(DE3), purified (HisTrap, tag cleavage by protease, SEC); not shown: His6, N-terminal, cleaved; AVI-tag, N-terminal, cleaved
B3: CrSAS-6_6HR, N-terminal domain and six heptad repeats of the coiled-coil of Chlamydomonas reinhardtii SAS-6 (domain or fragment, UniProt A9CQL4 1-226, looked up)
chain: MPLLLDDGDPKAQTGFDLSTATTLFWRPVPVHVKQQDREDVLEELTFRILTGVAKQNHNLRILRIHISSDSDLFFLHTLEVSEEDFQSLKNDQGILVDFASFPGKIISLLEKCILAQPGDSPRFQAVLTIRGGESVFKIVEINDFKQLPHITLAFRPGNDSVVKQFLAFRLSEVKGTCHDLSDDLSRTRDDRDSMVAQLAQCRQQLAQLREQYDKHLLEVQAQAKT
notes: homodimer through the coiled-coil; source: E. coli BL21(DE3), purified (HisTrap, tag cleavage by protease, SEC); not shown: His6, N-terminal, cleaved; AVI-tag, N-terminal, cleaved
B4: CrSAS-6_NL, N-terminal head domain and the entire coiled-coil of Chlamydomonas reinhardtii SAS-6 (domain or fragment, UniProt A9CQL4 1-503, looked up)
chain: MPLLLDDGDPKAQTGFDLSTATTLFWRPVPVHVKQQDREDVLEELTFRILTGVAKQNHNLRILRIHISSDSDLFFLHTLEVSEEDFQSLKNDQGILVDFASFPGKIISLLEKCILAQPGDSPRFQAVLTIRGGESVFKIVEINDFKQLPHITLAFRPGNDSVVKQFLAFRLSEVKGTCHDLSDDLSRTRDDRDSMVAQLAQCRQQLAQLREQYDKHLLEVQAQAKTQQASAHEERIREKSQLKDQFEKERGEMEGRYRDQIAALNTRLGELDTENRKLREVKYELDTKVSELSHKLGSSEGSNRSLEEETARLRSLNQQLSSSKHELEIQLNEAKAKVLALDEKAQSQGDVIEQQRGRLRDMEAALRQTEQRCADLRDTLASAEGRAKEAQAEVLKGNQAIEKLTNDLRLAKEKTKRKAAIILRQEEELQEREQSLANATRDVGVLGQQAESLRKDVASLHSENDSLRSKLEDSKQQLQSNEQMIRWLNQQVTEAQLHASGAT
notes: SAS-6 of Chlamydomonas reinhardtii, N-terminal head domain and entire coiled-coil, residues 1-503; pFLOAT2-His vector, PreScission Protease site after the His tag; homodimers that assemble into ring polymers; source: E. coli BL21(DE3), purified (HisTrap, SEC)

Experiments:
[1] = target: the molecule itself; assay: crystal structure; CrSAS-6 combined with a 2x molar excess of monobody, complex purified by SEC; sitting drop vapor diffusion at 18 °C
[2] = target: the molecule itself; assay: PORT-HS-AFM; CrSAS-6_NL adsorbed on mica, 11-16 nM (equilibrium) or 44 nM (assembly reaction); 150 mM KCl, 20 mM Tris-HCl pH 8.0; monobodies at 6.8 µM, 14.5 µM and 12.9 µM

| Protein | binding result [1] | binding result [2] |
| --- | --- | --- |
| B1 | binds | – |
| B2 | binds | – |
| B3 | binds | – |
| B4 | – | binds |
